In publication PMC12033236:

T1: GST-GS2 (OsGRF4) (Oryza sativa, UniProt Q6ZIK5 1-394)
T1 sequence: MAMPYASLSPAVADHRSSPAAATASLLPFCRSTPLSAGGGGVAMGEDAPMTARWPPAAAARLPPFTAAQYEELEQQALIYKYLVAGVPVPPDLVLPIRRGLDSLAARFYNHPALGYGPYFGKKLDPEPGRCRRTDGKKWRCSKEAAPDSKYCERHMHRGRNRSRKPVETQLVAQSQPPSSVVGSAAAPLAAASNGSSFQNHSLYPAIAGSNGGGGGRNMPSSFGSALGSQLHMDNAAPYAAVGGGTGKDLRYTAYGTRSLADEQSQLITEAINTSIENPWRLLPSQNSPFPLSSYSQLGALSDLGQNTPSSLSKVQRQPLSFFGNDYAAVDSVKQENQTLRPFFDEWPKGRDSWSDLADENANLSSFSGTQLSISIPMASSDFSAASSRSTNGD

B1: SUG1 unlabeled probe A (competitor) (dsDNA)
DNA 1: CGCACAGTCCACCCAAAGCCGTTGTTA
DNA 2: TAACAACGGCTTTGGGTGGACTGTGCG
B2: SUG1 probe A-m (dsDNA)
DNA 1: CGCTACGTTCACCCAAAGCCGTTGTTA
DNA 2: TAACAACGGCTTTGGGTGAACGTAGCG
B3: SUG1 probe A (dsDNA)
DNA 1: CGCACAGTCCACCCAAAGCCGTTGTTA
DNA 2: TAACAACGGCTTTGGGTGGACTGTGCG

Columns and labels:
GST-GS2 (OsGRF4) [1] = target: T1, GST-GS2 (OsGRF4); experiment: competition
GST-GS2 (OsGRF4) [2] = target: T1, GST-GS2 (OsGRF4); experiment: EMSA

Binder | binding result (GST-GS2 (OsGRF4) [1]) | binding result (GST-GS2 (OsGRF4) [2])
B1 | binds | 
B2 |  | no binding
B3 |  | binds
